We go through four molecules from US20240409960A1, “METHOD FOR CONTROLLING PROTEIN FUNCTION” (The University of Tokyo, priority 2021, published 2024).

The test system of test [1] is DNA sequence flanked by two loxP sites (loxP-stop-loxP Fluc reporter) in HEK293 cells. In words: luciferase assay of Cre-loxP DNA recombination in HEK293 cells. Format: cell-based, human. Particulars: for background DNA recombination activity (leakage) in the absence of TMP: luciferase reporter; for TMP-dependent DNA recombination activity (induction): TMP 10 nM or 500 nM vs DMSO. The text has this:
For constructing a luciferase reporter for detecting Cre-loxP recombinase activity, the polyadenylation signal (poly(A)) repeated sequence (“stop”)) flanked by two loxP sites ([…]: SEQ ID No: 36) in the same orientation was amplified from Addgene plasmid (ID: 22797). Sequence encoding firefly luciferase (Fluc) was amplified from pGL4.31 vector (Promega). The loxP stop-loxP-Fluc construct was inserted into HindIII and XhoI sites in pcDNA3.1 (+) vector containing the CMV promoter.
HEK293T cells (American Type Culture Collection: ATCC) were cultured at 37° C. under 5% CO2 in Dulbecco's Modified Eagle Medium (DMEM; Thermo Fisher Scientific) supplemented with 10% fetal bovine serum (FBS; Thermo Fisher Scientific), 100 units/ml of penicillin and 100 μg/ml of streptomycin (Thermo Fisher Scientific) and 2 mM GlutaMAX (Thermo Fisher Scientific).
For luciferase assay, HEK 293 cells were plated at 25,000 cells per well on a 96-well flat white microplate (Thermo Fisher Scientific), and were then cultured for 24 hours at 37° C. in 5% CO2. The cells were transfected with cDNAs encoding destabilized Cre along with the luciferase reporter (loxP-stop-loxP Fluc), using X-tremeGENE9 reagent (Merck Millipore) at 37° C. The total amount of DNA was 50 ng per well. Twenty-four hours after the transfection, TMP or DMSO was added into the cells, and the cells were further cultured for 24 hours or 48 hours. Just before the luciferase assay, the medium was replaced with Hanks' balanced salt solution (HBSS) (Thermo Fisher Scientific) containing 0.2 mM D-luciferin potassium salt. Bioluminescence measurement was performed for 1 second per well at room temperature using a Centro XS^3 LB 960 plate-reading luminometer (Berthold Technologies).
Background: In a reporter assay the amount or activity of a reporter protein is the signal.

Test [2] relates to loxP-stop-loxP Fluc reporter in mice liver. In words: in vivo Cre-loxP recombination, bioluminescence imaging after HTV injection into mice. Particulars: for DNA recombination activity in vivo in the absence of TMP: HTV injection, DMSO I.P., bioluminescence 24 hours after injection; for TMP-dependent DNA recombination activity in vivo: TMP 167 μg/g body weight I.P. 3 hours after HTV injection. As to the method: Experiments using mice were performed in accordance with the Guidelines for Care and Use of Laboratory Animals as stated by the University of Tokyo. In all the experiments, four week-old female Slc: ICR mice (Sankyo Labo Service Corporation, Inc.) were used. The mice were […] with cDNAs encoding destabilized Cre along with the luciferase reporter (loxP-stop-loxP Fluc) at 1:9 ratio, using TransIT-EE Hydrodynamic Delivery Solution (Mirus Bio LLC, Madison). The total amount of the DNA injected into a mouse was 10 μg per mouse. The volume of a delivery solution was set at 0.1 mL per mouse weight (g). After the hydrodynamic (HTV) injection of DNA, the mice were bred for 3 hours, and thereafter, TMP (167 μg/g body weight) or DMSO was intraperitoneally (I.P.) injected into the mice. The total volume of the TMP solution injected into a mouse was 100 μL per mouse weight (g). The intraperitoneally injected mice were bred for further 21 hours. The bioluminescence imaging of the mice was performed 24 hours after the HTV injection of DNA. Prior to the bioluminescence imaging, 100 mM D-luciferin was intraperitoneally injected into the mice. The total volume of the injected D-luciferin solution was 10 μL per mouse weight (g). Three minutes after the D-luciferin injection, the bioluminescence images of the mice were obtained using the Lumazone bioluminescence imager (Nippon Roper) equipped with the Evolve EMCCD camera (Photometrics) for 1 minutes. During the intraperitoneal D-luciferin injection and the bioluminescence imaging, the mice were anaesthetized with isoflurane (Abb Vie) to keep them motionless. The obtained data were analyzed with the SlideBook 4.2 software (Intelligent Innovations Inc.).
Next, the usefulness of SPEED-Cre in a living mouse body, namely, in vivo was examined. Using a hydrodynamic tail vain (HTV) injection method (Liu et al., Gene Ther. 6:1258-1266, 1999), mice liver was we transiently transfected with DD-Cre or SPEED-Cre (FIG. 5a). Three hours after the HTV injection, TMP (167 μg/g body weight) or DMSO was intraperitoneally (I.P.) administered into the DD-Cre- or SPEED-Cre-transfected mice (FIG. 5a). The DNA recombination activity was measured using the bioluminescence of a luciferase reporter as an indicator. […] The DNA recombination ability of DD-Cre in vivo was consistent to the ability in in vitro experiments using the human cell line.

B1: split-Cre: Cre split between Ser152 and Asp153 into N-terminal (a.a. 2-152) and C-terminal (a.a. 153-343) self-assembling fragments; SEQ ID No: 8 (protein)
chain: MVSKYPYDVPDYARSGGSGGKLVPKKKRKVGGSNLLTVHQNLPALPVDATSDEVRKNLMDMFRDRQAFSEHTWKMLLSVCRSWAAWCKLNNRKWFPAEPEDVRDYLLYLQARGLAVKTIQQHLGQLNMLHRRSGLPRPSDSNAVSLVMRRIRKENVDAGERAKQALAFERTDFDQVRSLMENSGSGSGATNFSLLKQAGDVEENPGPLEDRCQDIRNLAFLGIAYNTLLRIAEIARIRVKDISRTDGGRMLIHIGRTKTLVSTAGVEKALSLGVTKLVERWISVSGVADDPNNYLFCRVRKNGVAAPSATSQLSTRALEGIFEATHRLIYGAKDDSGQRYLAWSGHSARVGAARDMARAGVSIPEIMQAGGWTNVNIVMNYIRNLDSETGAMVRLLEDGD
modifications: MISC_FEATURE - HAtag; SIGNAL 23..30 Nuclear Localization Signal; MISC_FEATURE - N-terminal of Cre; MISC_FEATURE - P2A; MISC_FEATURE - C-terminal side of Cre; Bacteriophage P1
B1: in test [1] (N-terminal (a.a. 2-152) and C-terminal (a.a. 153-343) fragments expressed via P2A in HEK293 cells, no TMP), the “recombination efficiency of the self-assembled split fragments” value is “high recombination efficiency comparable to that of iCre”.

B2: DD-sasCre: sasCre tagged with a single DD sequence on the N terminal side of Cre; SEQ ID No: 9 (protein)
chain: MVSKYPYDVPDYARSGGSGGMISLIAALAVDYVIGMENAMPWNLPADLAWFKRNTLNKPVIMGRHTWESIGRPLPGRKNIILSSQPSTDDRVTWVKSVDEAIAACGDVPEIMVIGGGRVIEQFLPKAQKLYLTHIDAEVEGDTHFPDYEPDDWESVFSEFHDADAQNSHSYCFEILERRGGSGGSGGKLVPKKKRKVGGSNLLTVHQNLPALPVDATSDEVRKNLMDMFRDRQAFSEHTWKMLLSVCRSWAAWCKLNNRKWFPAEPEDVRDYLLYLQARGLAVKTIQQHLGQLNMLHRRSGLPRPSDSNAVSLVMRRIRKENVDAGERAKQALAFERTDFDQVRSLMENSGSGSGATNFSLLKQAGDVEENPGPLEDRCQDIRNLAFLGIAYNTLLRIAEIARIRVKDISRTDGGRMLIHIGRTKTLVSTAGVEKALSLGVTKLVERWISVSGVADDPNNYLFCRVRKNGVAAPSATSQLSTRALEGIFEATHRLIYGAKDDSGQRYLAWSGHSARVGAARDMARAGVSIPEIMQAGGWTNVNIVMNYIRNLDSETGAMVRLLEDGD
modifications: MISC_FEATURE - HAtag; DOMAIN 21..179 Degradation Domain; SIGNAL 190..197 Nuclear Localization Signal; MISC_FEATURE - N-terminal side of Cre; MISC_FEATURE - P2A; MISC_FEATURE - C-terminal side of Cre; Bacteriophage P1
Regarding B2, in test [1] (HEK293 cells, no TMP), the “background DNA recombination activity (leakage) in the absence of TMP” value (shortened to “background DNA recombination activity”) is given as “significantly lower activity leakage than DD-Cre 1.4”.

B3: DD-Cre: destabilized Cre tagged with one ecDHFR-derived DD sequence; SEQ ID No: 3 (protein)
chain: MVSKYPYDVPDYARSGGSGGMISLIAALAVDYVIGMENAMPWNLPADLAWFKRNTLNKPVIMGRHTWESIGRPLPGRKNIILSSQPSTDDRVTWVKSVDEAIAACGDVPEIMVIGGGRVIEQFLPKAQKLYLTHIDAEVEGDTHFPDYEPDDWESVFSEFHDADAQNSHSYCFEILERRGGSGGSGGKLVPKKKRKVGGSNLLTVHQNLPALPVDATSDEVRKNLMDMFRDRQAFSEHTWKMLLSVCRSWAAWCKLNNRKWFPAEPEDVRDYLLYLQARGLAVKTIQQHLGQLNMLHRRSGLPRPSDSNAVSLVMRRIRKENVDAGERAKQALAFERTDFDQVRSLMENSDRCQDIRNLAFLGIAYNTLLRIAEIARIRVKDISRTDGGRMLIHIGRTKTLVSTAGVEKALSLGVTKLVERWISVSGVADDPNNYLFCRVRKNGVAAPSATSQLSTRALEGIFEATHRLIYGAKDDSGQRYLAWSGHSARVGAARDMARAGVSIPEIMQAGGWTNVNIVMNYIRNLDSETGAMVRLLEDGD
modifications: MISC_FEATURE - HAtag; DOMAIN 21..179 degradation domain; SIGNAL 190..197 Nuclear Localization Signal; Bacteriophage P1
For the molecule B3, the “TMP-dependent DNA recombination activity” value in test [1] (HEK293 cells transfected with 5 ng of expression plasmid, TMP treatment) is on record as “does not induce the DNA recombination”. Besides, the “background DNA recombination activity” value in test [1] (HEK293 cells, no TMP) is “almost the same level of the recombination activity of iCre”. Further, the “recombination activity after reduction of the transfection amount” value in test [1] (transfection amount reduced by one 400th, HEK293 cells) is recorded as “remained at almost the same level as that before the reduction of the transfection amount”. For the same molecule, in test [2], the “DNA recombination activity in vivo in the absence of TMP” value is “high DNA recombination activity at the same level as iCre” and the “TMP-dependent DNA recombination activity in vivo” value is given as “DNA recombination was not induced”.

B4: SPEED-Cre: split Cre with a DD sequence on each of the N-terminal and C-terminal fragments; SEQ ID No: 10 (protein)
chain: MVSKYPYDVPDYARSGGSGGMISLIAALAVDYVIGMENAMPWNLPADLAWFKRNTLNKPVIMGRHTWESIGRPLPGRKNIILSSQPSTDDRVTWVKSVDEAIAACGDVPEIMVIGGGRVIEQFLPKAQKLYLTHIDAEVEGDTHFPDYEPDDWESVFSEFHDADAQNSHSYCFEILERRGGSGGSGGKLVPKKKRKVGGSNLLTVHQNLPALPVDATSDEVRKNLMDMFRDRQAFSEHTWKMLLSVCRSWAAWCKLNNRKWFPAEPEDVRDYLLYLQARGLAVKTIQQHLGQLNMLHRRSGLPRPSDSNAVSLVMRRIRKENVDAGERAKQALAFERTDFDQVRSLMENSGSGSGATNFSLLKQAGDVEENPGPLEDRCQDIRNLAFLGIAYNTLLRIAEIARIRVKDISRTDGGRMLIHIGRTKTLVSTAGVEKALSLGVTKLVERWISVSGVADDPNNYLFCRVRKNGVAAPSATSQLSTRALEGIFEATHRLIYGAKDDSGQRYLAWSGHSARVGAARDMARAGVSIPEIMQAGGWTNVNIVMNYIRNLDSETGAMVRLLEDGDGGSGGSGGMISLIAALAVDYVIGMENAMPWNLPADLAWFKRNTLNKPVIMGRHTWESIGRPLPGRKNIILSSQPSTDDRVTWVKSVDEAIAACGDVPEIMVIGGGRVIEQFLPKAQKLYLTHIDAEVEGDTHFPDYEPDDWESVFSEFHDADAQNSHSYCFEILERR
modifications: MISC_FEATURE - HAtag; DOMAIN 21..179 Degradation Domain; SIGNAL 190..197 Nuclear Localization Signal; MISC_FEATURE - N-terminal side of Cre; MISC_FEATURE - P2A; MISC_FEATURE - C-terminal side of Cre; DOMAIN 576..734 Degradation Domain; Bacteriophage P1
B4: the “TMP-dependent DNA recombination activity (induction)” value in test [1] (5 ng expression plasmid, 24 or 48 hours (FIG. 4d)) is on record as “not less than 10 fold”; in test [1] (expression plasmid in various amounts, 24 or 48 hours (FIGS. 4f and g)), “up to 330 fold”. Also, the “background DNA recombination activity” value in test [1] (HEK293 cells, no TMP) was “extremely low level that was comparable to the case of using the pcDNA3.1 empty vector plasmid and the reporter plasmid”. Moreover, the “leakage of DNA recombination activity in the absence of TMP as a function of the amount of expression plasmid” value in test [1] (HEK293 cells, plasmid amount varied, no TMP) was “maintained a low level”. Besides, the “DNA recombination activity in vivo in the absence of TMP” value in test [2] is “suppressed to low, comparable to a negative control group using the pcDNA3.1 empty vector plasmid”. In addition, the “TMP-dependent DNA recombination activity in vivo” value in test [2] is reported as “high TMP-dependent DNA recombination activity, comparable to the recombination activity of Cre”.
